{"source": "paper PMC2701922", "proteins": {"B1": {"name": "T. maritima 6PGDH (Thermotoga maritima MSB8) (protein)", "chain": "MKSHIGLIGLAVMGQNLALNIARKGYKVSVYNRTAQRTEEFVKNRVTNEEIEPHYDIESFVKSLERPRKIILMVKAGKPVDDTISQLLPHLEPGDLIIDGGNSHYMDTERRFKELSEKGILFLGMGVSGGEYGALHGPSLMPGGSREAYNLVEEILLEIAAKTEDGPCCTYVGERSAGHFVKMVHNGIEYAIMQAIAEVYHIMRDVLSLSSEEMSSIFEEWNRGELSSFLVEITYKILRKKDEETGKPMVDVILDKAEQKGTGKWTSQAALDLGIPTPSINLAVVERVISHFKDIRTRLSKLYNKRRSATQGSEEFLRDLRNSLFFAMFMAFSQGMWLIAEASKEFGYGVSLSEVLRIWKGGCIIRAKLIDTLRRYISNENAYLLENEEVMNLLKGKIDSLKNILKASIENEIPVPVLSSSYNYFMSLTEERLPANLIQAQRDFFGAHTFERVDREGVFHINWEEGEIG", "notes": "full length, expressed in E. coli as CBM-intein-6PGDH fusion, tag removed by intein self-cleavage; 53 kDa"}}, "key": {"purified protein [1]": {"substrate": "NC(=O)c1ccc[n+]([C@@H]2O[C@H](COP(=O)(O)OP(=O)(O)OC[C@H]3O[C@@H](n4cnc5c(N)ncnc54)[C@H](O)[C@@H]3O)[C@@H](O)[C@H]2O)c1", "experiment": "purified protein", "format": "biochemical, Thermotoga maritima", "settings": "50-1000 μM NAD+, with 6-phosphogluconate, 80°C, varied: cofactor"}, "purified protein [2]": {"substrate": "NC(=O)c1ccc[n+]([C@@H]2O[C@H](COP(=O)(O)OP(=O)(O)OC[C@H]3O[C@@H](n4cnc5c(N)ncnc54)[C@H](OP(=O)(O)O)[C@@H]3O)[C@@H](O)[C@H]2O)c1", "experiment": "purified protein", "format": "biochemical, Thermotoga maritima", "settings": "2 mM 6-phosphogluconate, 50 mM Hepes pH 7.5, 5 mM Mg2+, 0.5 mM Mn2+, 80°C, varied: cofactor"}}, "data": [{"protein": "B1", "values": [{"measurement": "Km", "setting": "purified protein [1]", "result": 380, "unit": "µM"}, {"measurement": "Km", "setting": "purified protein [2]", "result": 10, "unit": "µM"}]}]}
